B1: myc-tagged human ARMC5 (pcDNA3.1-myc-hARMC5), wild type [human] / FLAG-SREBF1(N), N-terminus of mouse SREBF1, from pcDNA3.1-FLAG-Srebf1(N) in HEK293T [mouse] (parent complex)
chain 1: MAAAKPTLTDSLSFCLAQLAAAAGEALGGEKDPATNETPLSRALLALRTRHIKAAGGIERFRARGGLRPLLALLRRAAAAGSAPSQAGPGSAPSSAASGASSPAPASGPAPSAVSSSSPTPPVRLRKTLDLALSILADCCTEGACRTEVRRLGGILPLVTILQCMKTDSIQNRTARALGNLAMEPESCGDIHCAGAVPLLVESLTACQDSQCLQSVVRALRNLADSPQHRLALAQQGAVRPLAELLATAPDAALTLALVRALLELSRGCSRACAEQLSLGGGLGPLVSLASHPKRAVREGTILILANLCAQGLIRPALGNAGGVEVLVDELRQRRDPNGASPTSQQPLVRAVCLLCREAINRARLRDAGGLDLLMGLLRDPRASAWHPRIVAALVGFLYDTGALGRLQALGLVPLLAGQLCGEAGEEEEEGREAASWDFPEERTPERAQGGSFRSLRSWLISEGYATGPDDISPDWSPEQCPPEPMEPASPAPTPTSLRAPRTQRTPGRSPAAAIEEPWGREGPALLLLSRFSQAPDPSGALVTGPALYGLLTYVTGAPGPPSPRALRILSRLTCNPACLEAFVRSYGAALLRAWLVLGVAPDDWPAPRARPTLHSRHRELGERLLQNLTVQAESPFGVGALTHLLLSGSPEDRVACALTLPFICRKPSLWRRLLLEQGGLRLLLAALTRPAPHPLFLFFAADSLSCLQDLVSPTVSPAVPQAVPMDLDSPSPCLYEPLLGPAPVPAPDLHFLLDSGLQLPAQRAASATASPFFRALLSGSFAEAQMDLVPLRGLSPGAAWPVLHHLHGCRGCGAALGPVPPPGQPLLGSEAEEALEAAGRFLLPGLEEELEEAVGRIHLGPQGGPESVGEVFRLGRPRLAAHCARWTLGSEQCPRKRGLALVGLVEAAGEEAGPLTEALLAVVMGIELGARVPA
chain 2: DELAFGEAALEQTLAEMCELDTAVLNDIEDMLQLINNQDSDFPGLFDAPYAGGETGDTGPSSPGANSPESFSSASLASSLEAFLGGPKVTPAPLSPPPSAPAALKMYPSVSPFSPGPGIKEEPVPLTILQPAAPQPSPGTLLPPSFPAPPVQLSPAPVLGYSSLPSGFSGTLPGNTQQPPSSLPLAPAPGVLPTPALHTQVQSLASQQPLPASAAPRTNTVTSQVQQVPVVLQPHFIKADSLLLTAVKTDAGATVKTAGISTLAPGTAVQAGPLQTLVSGGTILATVPLVVDTDKLPIHRLAAGSKALGSAQSRGEKRTAHNAIEKRYRSSINDKIVELKDLVVGTEAKLNKSAVLRKAIDYIRFLQHSNQKLKQENLTLRSAHKSKSLKDLVSACGSGGGTDVSMEGMKPEVVETLTPPPSDAGSPSQSSPLSFGSRASSSGGSDSEPDSP

In the experiment the parent is B1. The experiment is described as follows: co-immunoprecipitation (anti-FLAG IP) with western blot densitometry; HEK293T cells; n = 3; read off a plot.
In the case of chain 1 L754P, the response is roughly 0.31 A.U.
Take chain 1 R898W: the response is roughly 0.3 A.U.
The figure for chain 1 R315W is roughly 0.12 A.U.
The figure for chain 1 R362L is roughly 0.075 A.U; for chain 1 L331P it is roughly 0.12 A.U.

The values above are taken from publication PMC9462479 (2022).
